Where a chain is given by its changes, count along the chain named.
B1: ABII019 (VHH)
VHH: EVQLLESGGGLVQPGGSLRLSCAHSGPTFRTDTMGWFRQAPGKGREFVAAVTWNSGRINYADSVKGRFTISRDNSKNTVYLQMNSLRPEDTAVYYCAAHRFVVGGNRVEDWRYWGQGTLVTVSS
notes: humanized variant of ABII002
B2: ABII025 (VHH)
VHH: B1 VHH with N84S
notes: humanized variant of ABII002
B3: ABII021 (VHH)
VHH: B1 VHH with T78A
notes: humanized variant of ABII002
B4: ABII026 (VHH)
VHH: B1 VHH with V79A
notes: humanized variant of ABII002
B5: ABII028 (VHH)
VHH: B1 VHH with A23V
notes: humanized variant of ABII002
B6: ABII020 (VHH)
VHH: B1 VHH with V79L
notes: humanized variant of ABII002
B7: ABII003 (VHH)
VHH: EVQLLESGGGLVLPGGSLRLSCVHSGPTFRTDTMGWFRQAPGKGREFVAAVTWNSGRINYADSVKGRFTVSRDNTRNAAYLQMSGLKDEDTAVYYCTAHRFVVGGNRVEDWRYWGQGTLVTVSS
notes: humanized variant of ABII002
B8: ABII022 (VHH)
VHH: B1 VHH with T78A, N84S
notes: humanized variant of ABII002
B9: ABII024 (VHH)
VHH: B1 VHH with T78A, V79A, N84S
notes: humanized variant of ABII002
B10: ABII037 (VHH)
VHH: B1 VHH with A23V, V79A, P88A
notes: humanized variant of ABII002
B11: ABII023 (VHH)
VHH: B1 VHH with T78A, V79A
notes: humanized variant of ABII002
B12: ABII027 (VHH)
VHH: B1 VHH with V79A, N84S
notes: humanized variant of ABII002
B13: ABII012 (VHH)
VHH: B7 VHH with S84N
notes: humanized variant of ABII002
B14: ABII014 (VHH)
VHH: B7 VHH with K87R
notes: humanized variant of ABII002
B15: ABII006 (VHH)
VHH: B7 VHH with H24A
notes: humanized variant of ABII002
B16: ABII008 (VHH)
VHH: B7 VHH with T75S
notes: humanized variant of ABII002
B17: ABII016 (VHH)
VHH: B7 VHH with D88P
notes: humanized variant of ABII002
B18: ABII010 (VHH)
VHH: B7 VHH with A78T
notes: humanized variant of ABII002
B19: ABII007 (VHH)
VHH: B7 VHH with V70I
notes: humanized variant of ABII002
B20: ABII015 (VHH)
VHH: B7 VHH with D88A
notes: humanized variant of ABII002
B21: ABII018 (VHH)
VHH: B7 VHH with L13Q, D88P
notes: humanized variant of ABII002
B22: ABII013 (VHH)
VHH: B7 VHH with G85S
notes: humanized variant of ABII002
B23: ABII009 (VHH)
VHH: B7 VHH with R76K
notes: humanized variant of ABII002
B24: ABII005 (VHH)
VHH: B7 VHH with V23A
notes: humanized variant of ABII002
B25: ABII011 (VHH)
VHH: B7 VHH with A79L
notes: humanized variant of ABII002
B26: ABII004 (VHH)
VHH: B7 VHH with L13Q
notes: humanized variant of ABII002
B27: ABII017 (VHH)
VHH: B7 VHH with T97A
notes: humanized variant of ABII002
B28: ABII051 (VHH)
VHH: EVQLLESGGGLVQPGGSLRLSCAASGRTFNNYNMGWFRQAPGKGREFVAAVSRSGVSTYYADSVKGRFTISRDNAKNAVYLQMNSLRPEDTAIYYCGAAYRGTAINVRRSYDSWGQGTLVTVSS
notes: humanized variant of ABII050
B29: ABII057 (VHH)
VHH: B28 VHH with A75S, A78T, I93V, G97A
notes: humanized variant of ABII050
B30: ABII060 (VHH)
VHH: B28 VHH with A75S, A78T, V79L, I93V, G97A, D112S
notes: humanized variant of ABII050
B31: ABII052 (VHH)
VHH: B28 VHH with A75S
notes: humanized variant of ABII050
B32: ABII061 (VHH)
VHH: B28 VHH with A75S, A78T, I93V, D112S
notes: humanized variant of ABII050
B33: ABII055 (VHH)
VHH: B28 VHH with I93V
notes: humanized variant of ABII050
B34: ABII056 (VHH)
VHH: B28 VHH with G97A
notes: humanized variant of ABII050
B35: ABII058 (VHH)
VHH: B28 VHH with A75S, A78T, V79L, I93V, G97A
notes: humanized variant of ABII050
B36: ABII053 (VHH)
VHH: B28 VHH with A78T
notes: humanized variant of ABII050
B37: ABII054 (VHH)
VHH: B28 VHH with V79L
notes: humanized variant of ABII050

biological target: T1, human A-beta(1-40) peptide, monomeric (BAM) (human, biotin at the C-terminus in capture ELISA, SPR and TR-FRET; not biotinylated where coated directly (Example 7)); test: TR-FRET competition; labelled competitor not given
T1 construct: synthetic peptide (Anaspec), TFA/HFIP treated to give monomer; also called monomeric A-beta

Row | Binder | IC50 [nM]
1 | B1 | 14
2 | B2 | 18
3 | B3 | 24
4 | B4 | 5.1
5 | B5 | 11
6 | B6 | 110
7 | B7 | 2.1
8 | B8 | 16
9 | B9 | 6
10 | B10 | 3.1
11 | B11 | 5.8
12 | B12 | 4.4
13 | B13 | 1.5
14 | B14 | 1.3
15 | B15 | 80
16 | B16 | 1.9
17 | B17 | 2.4
18 | B18 | 1.9
19 | B19 | 1.6

Row | Binder | IC50 [nM]
20 | B20 | 1.8
21 | B21 | 3.2
22 | B22 | 1.6
23 | B23 | 1.7
24 | B24 | 3.3
25 | B25 | 24
26 | B26 | 2.1
27 | B27 | 2.4
28 | B28 | 18
29 | B29 | 46
30 | B30 | 50
31 | B31 | 19
32 | B32 | 2.4
33 | B33 | 22
34 | B34 | 29
35 | B35 | 73
36 | B36 | 20
37 | B37 | 51

biological target: T1, human A-beta(1-40) peptide, monomeric …; test: TR-FRET competition, mean IC50

Row | Binder | IC50 [nM]
38 | B1 | 14
39 | B2 | 18
40 | B3 | 24
41 | B4 | 5.1
42 | B5 | 11
43 | B6 | 110
44 | B7 | 2.1
45 | B8 | 16
46 | B9 | 6
47 | B11 | 5.8
48 | B12 | 4.4
49 | B13 | 1.5
50 | B14 | 1.3
51 | B15 | 80
52 | B16 | 1.9
53 | B17 | 2.4
54 | B18 | 1.9
55 | B19 | 1.6

Row | Binder | IC50 [nM]
56 | B20 | 1.8
57 | B21 | 3.2
58 | B22 | 1.6
59 | B23 | 1.7
60 | B24 | 3.3
61 | B25 | 24
62 | B26 | 2.1
63 | B27 | 2.4
64 | B28 | 18
65 | B29 | 46
66 | B30 | 50
67 | B31 | 19
68 | B33 | 22
69 | B34 | 29
70 | B35 | 73
71 | B36 | 20
72 | B37 | 51
